In this experiment the target is TOX (UniProt Q66JW3). Nature of the experiment: anti-TOX IP from EL4 cells, mass spectrometry, MiST analysis.
TOX, sequence (Q66JW3 whole entry): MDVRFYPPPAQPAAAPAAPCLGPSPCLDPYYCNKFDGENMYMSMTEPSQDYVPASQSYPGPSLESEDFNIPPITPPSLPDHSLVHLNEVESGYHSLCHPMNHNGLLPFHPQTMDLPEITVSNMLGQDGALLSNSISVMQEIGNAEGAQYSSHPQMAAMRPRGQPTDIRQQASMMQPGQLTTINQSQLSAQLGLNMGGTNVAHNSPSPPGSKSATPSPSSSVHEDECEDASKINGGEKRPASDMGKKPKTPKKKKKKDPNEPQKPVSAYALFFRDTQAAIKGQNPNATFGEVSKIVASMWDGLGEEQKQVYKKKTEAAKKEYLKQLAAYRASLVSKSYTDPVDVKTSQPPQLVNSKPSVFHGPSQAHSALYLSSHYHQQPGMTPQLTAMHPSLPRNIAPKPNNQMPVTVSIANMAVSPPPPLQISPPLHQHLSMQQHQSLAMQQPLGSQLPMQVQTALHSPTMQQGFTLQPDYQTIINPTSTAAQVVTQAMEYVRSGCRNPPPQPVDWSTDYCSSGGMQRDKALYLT
On to “Supt16; Supt16h (from UniProt Q920B9 2-1047)”, for which the Abundance is 4.95e-06, the MiST Score amounted to 0.818, the Reproducibility was found to be 0.8 and the Specificity amounted to 0.833.
For Nup98 (from UniProt Q6PFD9 1-880), in that order: 5.87e-07, 0.803, 0.381 and 1.
For “Parp2 (from UniProt O88554 1-559) (enzyme)”, in that order: 2.87e-06, 0.827, 0.46 and 1.
“Ddx18 (from UniProt Q8K363 1-660) (enzyme)” came in with an Abundance of 4.72e-05, a MiST Score of 0.822, a Reproducibility of 0.986 and a Specificity of 0.756.
In the case of “Ptpn11 (from UniProt P35235 2-593) (enzyme)”, the Abundance came out at 4.22e-05, the MiST Score is 0.808, the Reproducibility worked out at 0.396 and the Specificity was 1.
On the same counts, the results for Ipo4 (from UniProt Q8VI75 1-1082) are 1.65e-06, 0.826, 0.94 and 0.782.
For the substance Ckap5 (from UniProt A2AGT5 1-2032), the Abundance turned out to be 1.02e-06, the MiST Score worked out at 0.81, the Reproducibility stood at 0.924 and the Specificity was found to be 0.765.
As to Add3 (from UniProt Q9QYB5 2-706), the Abundance stood at 3.22e-06, the MiST Score stood at 0.807, the Reproducibility was found to be 0.394 and the Specificity worked out at 1.
On the same counts, the results for Isy1 (from UniProt Q69ZQ2 1-285) are 3.22e-05, 0.811, 0.856 and 0.797.
In turn, “Rpl14; Rpl14-ps1 (from UniProt Q9CR57 1-217)” gave an Abundance of 0.00405, a MiST Score of 0.797, a Reproducibility of 0.997 and a Specificity of 0.714.
On the same counts, the results for Zc3h11a (from UniProt Q6NZF1 1-792) are 1.22e-05, 0.801, 0.957 and 0.737.
On the same counts, the results for “Aars (from UniProt Q8BGQ7 1-968) (enzyme)” are 4.49e-06, 0.827, 0.459 and 1.
On the same counts, the results for “Rars (from UniProt Q9D0I9 1-660) (enzyme)” are 4.81e-06, 0.797, 0.98 and 0.721.
“Yars (from UniProt Q91WQ3 1-528) (enzyme)” showed an Abundance of 2.51e-06, a MiST Score of 0.802, a Reproducibility of 0.379 and a Specificity of 1.
For Dnaja2 (from UniProt Q9QYJ0 1-409), in that order: 0.000332, 0.8, 0.946 and 0.742.
For Rpa2 (from UniProt Q62193 1-270), in that order: 0.000292, 0.814, 0.977 and 0.747.
On the same counts, the results for Srsf5 (from UniProt O35326 1-269) are 0.000505, 0.807, 0.996 and 0.729.
For Rftn1 (from UniProt Q6A0D4 2-554), the Abundance turned out to be 4.96e-06, the MiST Score came to 0.8, the Reproducibility came out at 0.37 and the Specificity is 1.
For Dst (from UniProt Q91ZU6 1-7393), in that order: 1.97e-08, 0.804, 0.385 and 1.
For Ssb (from UniProt P32067 1-415), in that order: 3.74e-05, 0.809, 0.807 and 0.817.
Lrrfip1 (from UniProt Q3UZ39 2-729) registered an Abundance of 8.42e-06, a MiST Score of 0.817, a Reproducibility of 0.996 and a Specificity of 0.743.
For Pds5b (from UniProt Q4VA53 1-1446), in that order: 2.47e-06, 0.807, 0.845 and 0.797.
Substance Sfxn1 (from UniProt Q99JR1 2-322) had an Abundance of 3.71e-05, a MiST Score of 0.827, a Reproducibility of 0.954 and a Specificity of 0.777.
On the same counts, the results for Tra2b (from UniProt P62996 2-288) are 3.65e-05, 0.803, 0.381 and 1.
On the same counts, the results for “Nmt1 (from UniProt O70310 1-496) (enzyme)” are 6.96e-06, 0.821, 0.948 and 0.772.
On the same counts, the results for Rps23 (from UniProt P62267 1-143) are 0.00479, 0.807, 0.997 and 0.728.
On to Ap3d1 (from UniProt O54774 2-1199), for which the Abundance amounted to 1.02e-06, the MiST Score is 0.817, the Reproducibility turned out to be 0.427 and the Specificity was 1.
On the same counts, the results for LRWD1 (from UniProt Q8BUI3 1-648) are 9.87e-06, 0.803, 0.965 and 0.737.
For Lmnb1 (from UniProt P14733 2-585), in that order: 1.67e-05, 0.822, 0.964 and 0.766.
For Baz1a (from UniProt O88379 1-1555), in that order: 4.09e-07, 0.825, 0.454 and 1.
The substance Pds5a (from UniProt Q6A026 1-1332) registered an Abundance of 1.76e-06, a MiST Score of 0.824, a Reproducibility of 0.865 and a Specificity of 0.813.
For “Dnmt1 (from UniProt P13864 1-1620) (enzyme)”, in that order: 4.05e-06, 0.814, 0.929 and 0.77.
Tdrd3 (from UniProt Q91W18 1-743) registered an Abundance of 8.62e-06, a MiST Score of 0.815, a Reproducibility of 0.627 and a Specificity of 0.907.
For Ahnak, in that order: 6.22e-06, 0.812, 0.497 and 0.961.

The record behind these values is patent US20210071139A1.
